The values that follow come from patent publication US20200262867A1 (WNTRX PHARMACEUTICALS, published 2020).

*1 amine or outer side, *2 acyl side, *3 side chain or, on linkers, in order; H or OH if unused. Bridges are numbered along the chain shown (N, C = ends). Primed or numbered codes have the meaning given here. Where no end group is shown, it is not given here. Side-chain parts run from the residue outwards. [ ]: non-standard residue; d: D form. The star is where a group is joined. peptoid‑Q = (5-amino-5-oxopentyl)glycine, N-substituted glycine, NC(=O)CCCCN(CC(=O)[*:2])[*:1]; Diphenylacetyl = O=C(C(c1ccccc1)c1ccccc1)*; 2Nal = N[C@@H](Cc1ccc2ccccc2c1)C(=O)O; Hydrocinnamoyl = O=C(CCc1ccccc1)*; NMeR = CN[C@@H](CCCNC(=N)N)C(=O)O; Palmitoyl = CCCCCCCCCCCCCCCC(=O)*; Ala(cPr) = N[C@@H](CC1CC1)C(=O)O; hArg = N=C(N)NCCCC[C@H](N)C(=O)O; NMeE = CN[C@@H](CCC(=O)O)C(=O)O; NMeQ = CN[C@@H](CCC(N)=O)C(=O)O; dNMeQ = CN[C@H](CCC(N)=O)C(=O)O; Cha = N[C@@H](CC1CCCCC1)C(=O)O; Cba = N[C@@H](CC1CCC1)C(=O)O; S5 = C=CCCC[C@](C)(N)C(=O)O; Ac6c = NC1(C(=O)O)CCCCC1; PEG4′ = not defined here; Hexanoyl = CCCCCC(=O)*; Propionyl = CCC(=O)*; βAla = NCCC(=O)O

T1: β-catenin (UniProt P35222 1-781, limits assumed)
T1 construct: also called beta-catenin
T1 sequence (looked up): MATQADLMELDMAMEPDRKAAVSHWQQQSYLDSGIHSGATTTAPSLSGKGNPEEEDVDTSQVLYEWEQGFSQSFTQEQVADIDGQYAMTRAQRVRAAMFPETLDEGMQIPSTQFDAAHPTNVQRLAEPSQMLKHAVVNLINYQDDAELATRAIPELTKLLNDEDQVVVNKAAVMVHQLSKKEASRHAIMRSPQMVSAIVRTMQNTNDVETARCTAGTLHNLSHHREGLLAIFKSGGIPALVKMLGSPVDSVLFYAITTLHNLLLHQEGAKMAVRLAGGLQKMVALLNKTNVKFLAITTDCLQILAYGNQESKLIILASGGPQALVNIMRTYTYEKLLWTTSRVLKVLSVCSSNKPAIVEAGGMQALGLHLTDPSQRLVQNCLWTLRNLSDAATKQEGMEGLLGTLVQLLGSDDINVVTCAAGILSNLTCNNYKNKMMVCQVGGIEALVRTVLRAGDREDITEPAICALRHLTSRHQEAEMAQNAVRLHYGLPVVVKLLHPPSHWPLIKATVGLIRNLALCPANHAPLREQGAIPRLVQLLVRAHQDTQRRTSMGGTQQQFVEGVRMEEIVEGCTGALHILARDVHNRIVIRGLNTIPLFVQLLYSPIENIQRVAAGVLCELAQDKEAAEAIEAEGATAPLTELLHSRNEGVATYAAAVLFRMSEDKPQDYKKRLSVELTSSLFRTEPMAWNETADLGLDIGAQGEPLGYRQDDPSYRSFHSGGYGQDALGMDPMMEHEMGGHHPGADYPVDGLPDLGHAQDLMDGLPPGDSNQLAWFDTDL

T2: β-catenin, P35222
T2 chain: T1 sequence (looked up)

B1: SEQ ID NO: 180 (peptide)
peptide: Ac-HRQRSLQTLR[S5]IQR[S5][Cha][2Nal]-NH2
modifications: staple 11-15
SMILES: CC[C@H](C)[C@@H]1NC(=O)[C@@](C)(NC(=O)[C@H](CCCNC(=N)N)NC(=O)[C@H](CC(C)C)NC(=O)[C@@H](NC(=O)[C@H](CCC(N)=O)NC(=O)[C@H](CC(C)C)NC(=O)[C@H](CO)NC(=O)[C@H](CCCNC(=N)N)NC(=O)[C@H](CCC(N)=O)NC(=O)[C@H](CCCNC(=N)N)NC(=O)[C@H](Cc2c[nH]cn2)NC(C)=O)[C@@H](C)O)CCCC=CCCC[C@@](C)(C(=O)N[C@@H](CC2CCCCC2)C(=O)N[C@@H](Cc2ccc3ccccc3c2)C(N)=O)NC(=O)[C@H](CCCNC(=N)N)NC(=O)[C@H](CCC(N)=O)NC1=O
B2: SEQ ID NO: 116 (peptide)
peptide: L[dNMeQ]TLR[S5]I[dNMeQ]R[S5][Cba][2Nal]
modifications: staple 6-10; not fully specified (N-terminus, C-terminus); printed as L(N-methylQ)TLRXI(N-methylQ)RX(CBA)(2-Nal), X/X stapled, (S) α-methyl, N-terminal Ac, C-terminal NH2
B3: SEQ ID NO: 163 (peptide)
peptide: HRQRSLQT[Cha]R[S5]IQR[S5][Cba][2Nal]
modifications: staple 11-15; not fully specified (residues 3, 7, N-terminus, C-terminus); printed as HR(N-methylQ)RSL(N-methylQ)T(Cha)RXIQRX(CBA)(2-Nal), X/X stapled, (S) α-methyl, N-terminal Ac, C-terminal NH2
B4: SEQ ID NO: 108 (peptide)
peptide: L[dNMeQ]TLR[S5]IQR[S5][Cba][2Nal]
modifications: staple 6-10; not fully specified (N-terminus, C-terminus); printed as L(N-methylQ)TLRXIQRX(CBA)(2-Nal), X/X stapled, (S) α-methyl, N-terminal Ac, C-terminal NH2

The target of the first experiment is T1, β-catenin. Put plainly: ALPHA Screen (BCL9/β-catenin).
Text: In this assay, a polypeptide is conjugated to a donor bead and its target protein (i.e., β-catenin) is attached to an acceptor bead. When the two beads are in proximity due to the binding of the polypeptide to the target protein, a signal is generated and the binding affinity of the polypeptide can be quantitatively calculated. The assay may be conducted in the presence or absence of an unconjugated control polypeptide.
The term IC50 denotes the concentration needed to halve the response being measured. High values mean lower potency, low ones higher potency. Ac-HRQRSLQTLR[S5]IQR[S5][Ac6c][2Nal]-NH2 (staple 11-15) [SEQ ID NO: 177] registered a half-inhibitory concentration (IC50) of 211 nM. As for Ac-HRQRSL[peptoid‑Q]TLR[S5]IQR[S5][Cba][2Nal]-NH2 (staple 11-15) [SEQ ID NO: 169], the IC50 was 328 nM.

In turn, Ac-HRQRSLQTLR[S5]IQR[S5][Cba][2Nal]-NH2 (staple 11-15) [SEQ ID NO: 147] registered an IC50 of 186 nM. Still for that read-out and setting: then B1, with 138 nM; and Ac-RSLQTLR[S5]IQR[S5]L[2Nal]-NH2 (staple 8-12; not fully specified; printed as RSLQTLRXIQRXL(2-Nal)) [SEQ ID NO: 4], with 1910 nM. In turn, Ac-HRQRSLQTLR[S5]IQR[S5][Ala(cPr)][2Nal]-NH2 (staple 11-15) [SEQ ID NO: 162] came in with an IC50 of 322 nM. Regarding Propionyl-L[NMeQ]TLR[S5]IQR[S5][Cba][2Nal]-NH2 (staple 6-10; also: N-methyl-Gln at 2: filing says both D and L) [SEQ ID NO: 135], half-maximal inhibition (IC50) required 8540 nM. Regarding B2, the concentration for half-maximal inhibition (IC50) was found to be 26900 nM. This IC50 is about 3.1-fold higher than that of the molecule before. Consider Ac-HR[NMeQ]RSL[NMeQ]TLR[S5]IQR[S5][Cha][2Nal]-NH2 (staple 11-15; also: N-methylQ at 3 and 7: D or L (both stated)) [SEQ ID NO: 181], for which inhibition was half-maximal at 186 nM (IC50). Against the preceding molecule, the IC50 is about 140-fold lower. Hydrocinnamoyl-L[NMeQ]TLR[S5]IQR[S5][Cba][2Nal]-NH2 (staple 6-10; also: N-methyl-Gln at 2: filing says both D and L) [SEQ ID NO: 137] yielded an IC50 of 8360 nM. Compared with the last molecule, the IC50 is about 45-fold higher. Hexanoyl-L[NMeQ]TLR[S5]IQR[S5][Cba][2Nal]-NH2 (staple 6-10; also: N-methyl-Gln at 2: filing says both D and L) [SEQ ID NO: 136] gave an IC50 of 3520 nM. The same measure, in the same setting: the value for {3,5‑dihydroxybenzoic acid}-L[NMeQ]TLR[S5]IQR[S5][Cba][2Nal]-NH2 (staple 6-10; also: N-methyl-Gln at 2: filing says both D and L) [SEQ ID NO: 140] was 8160 nM; that for Ac-HRQ[hArg]SLQTLR[S5]IQR[S5][Cba][2Nal]-NH2 (staple 11-15) [SEQ ID NO: 167] was 356 nM.

In turn, Ac-HR[NMeE]RSL[NMeQ]TLR[S5]IQR[S5][Cba][2Nal]-NH2 (staple 11-15) [SEQ ID NO: 154] had a half-maximal inhibitory concentration (IC50) of 661 nM.

For the molecule B3, the concentration for half-maximal inhibition (IC50) was determined as 195 nM. Same read-out and setting: the value for Ac-HRQ[NMeR]SLQTLR[S5]IQR[S5][Cba][2Nal]-NH2 (staple 11-15) [SEQ ID NO: 168] was 434 nM; that for B4 was 408 nM; that for {2‑cyclohexylacetyl}-L[NMeQ]TLR[S5]IQR[S5][Cba][2Nal]-NH2 (staple 6-10; also: N-methyl-Gln at 2: filing says both D and L) [SEQ ID NO: 138] was 3820 nM. Diphenylacetyl-L[NMeQ]TLR[S5]IQR[S5][Cba][2Nal]-NH2 (staple 6-10; also: N-methyl-Gln at 2: filing says both D and L) [SEQ ID NO: 139] gave an IC50 of 4580 nM.

The target of a further experiment is T2, β-catenin, P35222. Put plainly: cell-based or functional assay.
Consider LQTLR[S5]IQR[S5]L[2Nal][βAla][βAla]GRKKRRQRRRPQK([PEG4′-Palmitoyl]) (staple 6-10) [SEQ ID NO: 34a], for which the IC50, Colo320DM cell viability came to 20000 nM.

Another experiment has as its target T1, β-catenin. Put plainly: cell-based or functional assay.
Ac-HRQRSLQTLR[S5]IQR[S5][Ac6c][2Nal]-NH2 (staple 11-15) [SEQ ID NO: 177]: the “IC50, Wnt/Beta-Catenin-LEF-TCF-bla HCT116 inhibitor screen” value turned out to be 4450 nM.

As for Ac-HRQRSLQTLR[S5]IQR[S5][Cba][2Nal]-NH2 (staple 11-15) [SEQ ID NO: 147], the “IC50, Wnt/Beta-Catenin-LEF-TCF-bla HCT116 inhibitor screen” value stood at 1540 nM. The same measure, in the same setting: the value for B1 was 2210 nM.

Take Ac-HRQRSLQTLR[S5]IQR[S5][Ala(cPr)][2Nal]-NH2 (staple 11-15) [SEQ ID NO: 162]: the “IC50, Wnt/Beta-Catenin-LEF-TCF-bla HCT116 inhibitor screen” value turned out to be 7050 nM. As to Ac-HR[NMeQ]RSL[NMeQ]TLR[S5]IQR[S5][Cha][2Nal]-NH2 (staple 11-15; also: N-methylQ at 3 and 7: D or L (both stated)) [SEQ ID NO: 181], the “IC50, Wnt/Beta-Catenin-LEF-TCF-bla HCT116 inhibitor screen” value was 4460 nM.

In the case of Ac-HR[NMeE]RSL[NMeQ]TLR[S5]IQR[S5][Cba][2Nal]-NH2 (staple 11-15) [SEQ ID NO: 154], the “IC50, Wnt/Beta-Catenin-LEF-TCF-bla HCT116 inhibitor screen” value is 2260 nM. On to B3, for which the “IC50, Wnt/Beta-Catenin-LEF-TCF-bla HCT116 inhibitor screen” value was 4430 nM. For the molecule B4, the “IC50, Wnt/Beta-Catenin-LEF-TCF-bla HCT116 inhibitor screen” value came out at 3160 nM.

The next experiment concerns the target T2, β-catenin, P35222. Kind of experiment: ALPHA Screen (BCL9/β-catenin).
In turn, LQTLR[S5]IQR[S5]L[2Nal][βAla][βAla]GRKKRRQRRRPQK([PEG4′-Palmitoyl]) (staple 6-10) [SEQ ID NO: 34a] gave an IC50 of 1380 nM.
